The values below come from patent US20240317858A1 (Adimab, published 2024).

For test [1], the target named is T1, Human CD3εδ Fc heterodimer (Hu CD3ε Fc + CD3δ Fc-HIS) (human, UniProt P07766 22-126; P04234 22-100).
T1 construct: range 22-126;range 22-100; Made in HEK 293 cells with a heterologous signal peptide; also called Hu CD3εδ-Fc; CD3εδ Fc-HIS heterodimer; not shown: Fc; Fc followed by HIS tag
The experiment in a line: SPR (Biacore), Fab over immobilized CD3εδ Fc, pH 6.0. The protocol: (§1) Anti-CD3 antibodies A001-A005, V002, V004, V007, V009, V010, V013, and V014-V019 were produced in CHO cells, and Fab fragments were generated from IgG1 antibodies by papain digestion and purification as described in Example 2. Monovalent binding affinity at pH 7.4 and pH 6.0 was measured via surface plasmon resonance (SPR). Briefly, human or cynomolgus CD3εδ Fe heterodimer produced as described in Example 2 was immobilized to a CM5 sensor chip in a Biacore® X100 (Cytiva, previously GE Healthcare Life Sciences) to a response level of ˜500 RUs. Fabs were then injected at 3-fold increasing concentrations, ranging from 0.74-180 nM. The sensor chip was doubly regenerated between cycles using 0.35 M EDTA and 0.1 M NaOH. The resulting data were double reference subtracted and fit to a 1:1 binding model using Biacore® Evaluation Software.

Test [2] deals with T2, Cynomolgus CD3εδ Fc heterodimer (Cy CD3ε Fc + CD3δ Fc-HIS) (cynomolgus, UniProt Q95LI5 22-117; Q95LI8 22-100).
T2 construct: range 22-117;range 22-100; Made in HEK 293 cells with a heterologous signal peptide; also called Cy CD3εδ-Fc; cyno CD3εδ Fc; not shown: Fc; Fc followed by HIS tag
Described as above. On the procedure: as §1

Test [3] concerns the target T1, Human CD3εδ Fc heterodimer (Hu CD3ε Fc …). The experiment in a line: SPR (Biacore), Fab over immobilized CD3εδ Fc, pH 7.4. On the procedure: as §1
Test [4] deals with T2, Cynomolgus CD3εδ Fc heterodimer (Cy …). Described as above. The protocol: as §1
The target in test [5] is T1, Human CD3εδ Fc heterodimer (Hu CD3ε Fc …). The experiment in a line: BLI (Octet), Fab monovalent, pH 6.0. The protocol:
(§2) ForteBio KD measurements (Biolayer interferometry; BLI). ForteBio affinity measurements were performed generally as previously described (Estep, P., et al., High throughput solution-based measurement of antibody-antigen affinity and epitope binning. MAbs, 2013. 5(2): p. 270-8.). Briefly, ForteBio affinity measurements were performed by loading IgGs or CD3εδ Fe-HIS heterodimer onto AHC sensors. Sensors were equilibrated off-line in assay buffer for 30 min and then monitored on-line for 60 seconds for baseline establishment. Sensors with loaded IgGs were exposed to 100 nM antigen (e.g., CD3) for 3 min, afterwards they were transferred to assay buffer for 10 min for off-rate measurement. Sensors loaded with CD3εδ Fe-HIS heterodimer were exposed to 100 nM anti-CD3 Fab for 3 min, afterwards they were transferred to assay buffer for 3 min or 10 min for off-rate measurement. Kinetics were analyzed using the 1:1 binding model. For measuring binding at different pHs, measurements were performed at pre-determined pHs (e.g., pH 7.4 and pH 6.0).
(§3) Anti-CD3 antibodies A001-A005, V002, V004, V007, V009, V010, V013, and V014-V019 were produced as IgG1s in CHO cells, and Fab fragments were generated from IgG1 antibodies by papain digestion and purification as described in Example 2. Human, cynomolgus, rhesus, and mouse CD3εδ Fc heterodimers were produced, and monovalent binding affinity and avidity at pH 7.4 and pH 6.0 were measured using the Octet® HTX instrument (ForteBio) as described in Example 2.

Test [6] concerns the target T2, Cynomolgus CD3εδ Fc heterodimer (Cy …). As to the kind of experiment: BLI (Octet), Fab monovalent, pH 6.0. The protocol:
as §2, §3

Test [7] deals with T1, Human CD3εδ Fc heterodimer (Hu CD3ε Fc …). As to the kind of experiment: BLI (Octet), Fab monovalent, pH 7.4. On the procedure:
as §2, §3

Test [8] deals with T2, Cynomolgus CD3εδ Fc heterodimer (Cy …). The experiment in a line: BLI (Octet), Fab monovalent, pH 7.4. On the procedure:
as §2, §3

The target of test [9] is T3, Rhesus CD3εδ Fc heterodimer (rhesus).
T3 construct: extracellular domain; also called Rh CD3εδ-Fc
The experiment in a line: BLI (Octet), Fab monovalent, pH 7.4. The protocol:
as §2, §3

Test [10] concerns the target T1, Human CD3εδ Fc heterodimer (Hu CD3ε Fc …). The experiment in a line: SPR (Biacore), Fab over Hu CD3εδ-Fc; sensorgram inset tied by a line to the filled square (parent antibody) labelled A001; pH not given on the sheet.
For test [11] the target is unchanged. The experiment in a line: BLI (Octet), CD3εδ Fc on AHC sensor, 100 nM Fab. On the procedure:
(§4) Affinity of the anti-CD3 antibodies for CD3 was determined by measuring their kinetic constants (kₒₙ, koff, KD) on ForteBio Octet®. ForteBio affinity measurements were performed generally as previously described (Estep et al., MAbs. 2013 5(2):270-8). […] Sensors were equilibrated off-line in assay buffer for 30 minutes and then monitored on-line for 60 seconds for baseline establishment. For monovalent binding measurement, sensors with loaded CD3εδ Fc were exposed to 100 nM anti-CD3 Fab, as further described in Example 2 below] for 3 minutes, afterwards they were transferred to assay buffer for 3 minutes for off-rate measurement. Kinetics data were fit using a 1:1 binding model in the data analysis software provided by ForteBio.

Test [12] concerns the target T2, Cynomolgus CD3εδ Fc heterodimer (Cy …). As to the kind of experiment: BLI (Octet), CD3εδ Fc on AHC sensor, 100 nM Fab. On the procedure:
as §4

In test [13] the target is T4, Human CD3 on CD3+ Jurkat cells (human, UniProt P07766 23-207).
T4 construct: whole, on cells; Target is the endogenous CD3 complex on cells; also called Human CD3+ Jurkat cells
The experiment in a line: flow cytometry, Fab titration. The protocol:
Further FACS analysis was conducted using 3-fold serial dilutions of anti-CD3 antibody Fab fragments. Fab fragments were generated from whole IgG antibodies by papain digestion and purified over KappaSelect or CaptureSelect IgG-CH1 (GE Healthcare LifeSciences) before preparation of serial dilutions. Binding to human CD3+ Jurkat cells and Cynomolgus monkey CD3 HSC-F cells was assessed with each diluted sample and results were used to build a titration curve and calculate half maximal effective concentration (EC50) values for Fab binding.

Test [14] concerns the target T1, Human CD3εδ Fc heterodimer (Hu CD3ε Fc …). The experiment in a line: SPR (Biacore), Fab over Hu CD3εδ-Fc; sensorgram inset labelled V013, tied by a line to an open square (PSR-optimized antibody); pH not given on the sheet.
Test [15] has the same target. As to the kind of experiment: SPR (Biacore), Fab over Hu CD3εδ-Fc; sensorgram inset tied by a line to the filled square (parent antibody) labelled A002; pH not given on the sheet.
Test [16] has the same target. As to the kind of experiment: SPR (Biacore), Fab over Hu CD3εδ-Fc; sensorgram inset labelled V007, tied by a line to an open square (PSR-optimized antibody); pH not given on the sheet.

T2 sequence (Q95LI5 22-117, stated change not applied, form in doubt, chain 1 of 2): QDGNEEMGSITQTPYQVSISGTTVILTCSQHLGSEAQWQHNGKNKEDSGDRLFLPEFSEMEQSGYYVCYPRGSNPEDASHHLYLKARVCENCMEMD
T2 sequence (Q95LI8 22-100, stated change not applied, form in doubt, chain 2 of 2): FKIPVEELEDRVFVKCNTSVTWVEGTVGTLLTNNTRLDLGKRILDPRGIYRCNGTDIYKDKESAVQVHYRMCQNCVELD
T1 sequence (P07766 22-126, stated change not applied, form in doubt, chain 1 of 2): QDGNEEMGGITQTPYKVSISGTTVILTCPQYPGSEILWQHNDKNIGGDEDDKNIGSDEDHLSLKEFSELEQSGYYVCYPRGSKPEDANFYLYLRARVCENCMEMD
T1 sequence (P04234 22-100, stated change not applied, form in doubt, chain 2 of 2): as the sequence (Q95LI8 22-100, stated change not applied, form in doubt, chain 2 of 2) above, with V5I, K15N, V20I, T32S, N33D, N34I, A64T, N74S counted along it
T4 sequence (P07766 23-207): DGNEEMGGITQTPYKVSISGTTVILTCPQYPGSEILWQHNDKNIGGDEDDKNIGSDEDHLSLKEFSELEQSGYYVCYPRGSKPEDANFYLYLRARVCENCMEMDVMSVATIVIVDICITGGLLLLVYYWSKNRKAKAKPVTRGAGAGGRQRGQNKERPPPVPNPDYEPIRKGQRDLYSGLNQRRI

B1: Antibody No. A001 (ADI-26906) Fab (Fab, V domains shown)
VH: QVQLVQSGAEVKKPGASVKVSCKASGFNIKDYYMHWVRQAPGQRLEWMGWIDLENANTIYDAKFQGRVTITRDTSASTAYMELSSLRSEDTAVYYCARDAYGRYFYDVWGQGTLVTVSS
VL: DIVMTQSPDSLAVSLGERATINCKSSQSLLNARTGKNYLAWYQQKPGQPPKLLIYWASTRESGVPDRFSGSGSGTDFTLTISSLQAEDVAVYYCKQSYSRRTFGGGTKVEIK
notes: Fab by papain digestion of the IgG1
In the case of B1, the dissociation constant (Kd) stood at 1.3 nM in test [1]; 1.9 nM in test [2]; 1.1 nM in [3]; 1.1 nM in test [4]; 5.8 nM in test [5]; 5.9 nM in test [6]. Also, the Kd in test [7] came to 6 nM; in test [8], 5.9 nM; in [9] it was 6.1 nM; in [10] it was 2 nM; in test [11] it was 2.81 nM; in test [12], 2.9 nM.

B2: Antibody No. V011 (ADI-70328) Fab (Fab, V domains shown)
VH: QVQLVQSGAEVKKPGASVKVSCKASGFNIDDYYMHWVRQAPGQRLEWIGWIDLENDNTVYDAKFQGRVTITRDTSASTAYMELSSLRSEDTAVYYCARDAYGRYFYDVWGQGTLVTVSS
VL: DIVMSQSPDSLAVSLGERATINCKSSQSLLNARTGKNYLAWYQQKPGQPPKLLIYWASTRSSGVPDRFSGSGSGTDFTLTISSLQAEDVAVYYCVQSYFRRTFGGGTKVEIK
notes: as for B1
For B2, a half-maximal effect in [13] (EC50) was put at 2.77 nM. In addition, the Kd came out at 0.82 nM in test [11] and 0.86 nM in [12].

B3: Antibody No. V013 (ADI-70330) Fab (Fab, V domains shown)
VH: QVQLVQSGAEVKKPGASVKVSCKASGFNIDDYYMHWVRQAPGQRLEWIGWIDLENANTVDDAKFQGRVTITRDTSASTAYMELSSLRSEDTAVYYCARDAYGRYFYDVWGQGTLVTVSS
VL: DIVMSQSPDSLAVSLGERATINCKSSQSLLNARTGKNYLAWYQQKPGQPPKLLIYWASTRSSGVPDRFSGSGSGTDFTLTISSLQAEDVAVYYCVQSYFRRTFGGGTKVEIK
notes: as for B1
Turning to B3, the dissociation constant (Kd) in test [1] came to 1.6 nM; in [2], 0.27 nM; in test [3], 0.18 nM; in test [4], 0.22 nM; in test [5], 1.6 nM; in [6] it was 1.9 nM. Moreover, the Kd in test [14] turned out to be 0.681 nM; in test [7], 2.4 nM; in test [8], 2.4 nM; in test [9] it was 2.5 nM; in test [11], 1.16 nM; in [12], 1.23 nM.

B4: Antibody No. A002 (ADI-50024) Fab (Fab, V domains shown)
VH: QVQLVQSGAEVKKPGASVKVSCKASGFNIKDYYMHWVRQAPGQRLEWIGWIDLENANTVYDAKFQGRVTITRDTSASTAYMELSSLRSEDTAVYYCARDAYGRYFYDVWGQGTLVTVSS
VL: DIVMSQSPDSLAVSLGERATINCKSSQSLLNARTGKNYLAWYQQKPGQPPKLLIYWASTRSSGVPDRFSGSGSGTDFTLTISSLQAEDVAVYYCVQSYFRRTFGGGTKVEIK
notes: as for B1
In the case of B4, the Kd in test [1] was 0.31 nM; in test [2], 0.2 nM; in test [3] it was 0.059 nM; in [4], 0.076 nM; in test [5], 1.3 nM; in [6], 1.7 nM. Further, the Kd in test [15] came to 0.244 nM; in [7], 1 nM; in test [8] it was 1.3 nM; in [9], 1.2 nM; in test [11], 0.5 nM; in [12] it was 0.57 nM.

B5: Antibody No. V007 (ADI-67450) Fab (Fab, V domains shown)
VH: QVQLVQSGAEVKKPGASVKVSCKASGFNIDDYYMHWVRQAPGQRLEWMGWIDLENANTIDDAKFQGRVTITRDTSASTAYMELSSLRSEDTAVYYCARDAYGRYFYDVWGQGTLVTVSS
VL: DIVMTQSPDSLAVSLGERATINCKSSQSLLNARTGKNYLAWYQQKPGQPPKLLIYWASTRESGVPDRFSGSGSGTDFTLTISSLQAEDVAVYYCKQSYSRRTFGGGTKVEIK
notes: as for B1
Regarding B5, the Kd in test [1] is 2.8 nM; in test [2], 2.1 nM; in [3], 4 nM; in [4], 2.7 nM; in test [16], 3.7 nM; in test [5] it was 6.9 nM. For the same molecule, the dissociation constant Kd in [6] turned out to be 6.9 nM; in test [7] it was 7.4 nM; in test [8], 8.7 nM; in [9] it was 9.2 nM; in test [11] it was 5.39 nM; in [12], 5.03 nM.
